The text below walks through data of patent publication US20100015650.

Series [1] addresses T1, BRB1 tyrosine kinase substrate peptide.
T1 chain: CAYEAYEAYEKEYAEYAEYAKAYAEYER

B1: ROR2 (protein)
chain: VCMCRNKQKASASTPQRRQLMASPSQDMEMPLINQHKQAKLKEISLSAVRFMEELGEDRFGKVYKGHLFGPAPGEQTQAVAIKTLKDKAEGPLREEFRHEAMLRARLQHPNVVCLLGVVTKDQPLSMIFSYCSHGDLHEFLVMRSPHSDVGSTDDDRTVKSALEPPDFVHLVAQIAAGMEYLSSHHVVHKDLATRNVLVYDKLNVKISDLGLFREVYAADYYKLLGNSLLPIRWMAPEAIMYGKFSIDSDIWSYGVVLWEVFSYGLQPYCGYSNQDVVEMIRNRQVLPCPDDCPAWVYALMIECWNEFPSRRPRFKDIHSRLRAWGNLSNYNSSAQTSGASNTTQTSSLSTSPVSNVSNARYVGPKQKAPPFPQPQFIPMKGQIRPMVPPPQLYVPVNGYQPVPAYGAYLPNFYPVQIPMQMAPQQVPPQMVPKPSSHHSGSGSTSTGYVTTAPSNTSMADRAALLSEGADDTQNAPEDGAQSTVQEAEEEEEGSVPETELLGDCDTLQVDEAQVQLEA
Consider B1, for which the Signal to Noise Ratio with BRB1 Peptide (TR-FRET kinase assay; kinase 20 nM) in series [1] worked out at 1.

B2: TIE2 (protein)
chain: QLKRANVQRRMAQAFQNVREEPAVQFNSGTLALNRKVKNNPDPTIYPVLDWNDIKFQDVIGEGNFGQVLKARIKKDGLRMDAAIKRMKEYASKDDHRDFAGELEVLCKLGHHPNIINLLGACEHRGYLYLAIEYAPHGNLLDFLRKSRVLETDPAFAIANSTASTLSSQQLLHFAADVARGMDYLSQKQFIHRDLAARNILVGENYVAKIADFGLSRGQEVYVKKTMGRLPVRWMAIESLNYSVYTTNSDVWSYGVLLWEIVSLGGTPYCGMTCAELYEKLPQGYRLEKPLNCDDEVYDLMRQCWREKPYERPSFAQILVSLNRMLEERKTYVNTTLYEKFTYAGIDCSAEEAA
For B2, in series [1], the Signal to Noise ratio with BRB1 Peptide (TR-FRET kinase assay; kinase 0.5 nM) came to 17.7.

B3: BTK (protein)
chain: AAVILESIFLKRSQQKKKTSPLNFKKRLFLLTVHKLSYYEYDFERGRRGSKKGSIDVEKITCVETVVPEKNPPPERQIPRRGEESSEMEQISIIERFPYPFQVVYDEGPLYVFSPTEELRKRWIHQLKNVIRYNSDLVQKYHPCFWIDGQYLCCSQTAKNAMGCQILENRNGSLKPGSSHRKTKKPLPPTPEEDQILKKPLPPEPAAAPVSTSELKKVVALYDYMPMNANDLQLRKGDEYFILEESNLPWWRARDKNGQEGYIPSNYVTEAEDSIEMYEWYSKHMTRSQAEQLLKQEGKEGGFIVRDSSKAGKYTVSVFAKSTGDPQGVIRHYVVCSTPQSQYYLAEKHLFSTIPELINYHQHNSAGLISRLKYPVSQQNKNAPSTAGLGYGSWEIDPKDLTFLKELGTGQFGVVKYGKWRGQYDVAIKMIKEGSMSEDEFIEEAKVMMNLSHEKLVQLYGVCTKQRPIFIITEYMANGCLLNYLREMRHRFQTQQLLEMCKDVCEAMEYLESKQFLHRDLAARNCLVNDQGVVKVSDFGLSRYVLDDEYTSSVGSKFPVRWSPPEVLMYSKFSSKSDIWAFGVLMWEIYSLGKMPYERFTNSETAEHIAQGLRLYRPHLASEKVYTIMYSCWHEKADERPTFKILLSNILDVMDEES
Take B3: the Signal to Noise ratio with BRB1 Peptide (TR-FRET kinase assay; kinase 0.25 nM) in series [1] was 6.8.

B4: TYRO3 (protein)
chain: LRKRRKETRFGQAFDSVMARGEPAVHFRAARSFNRERPERIEATLDSLGISDELKEKLEDVLIPEQQFTLGRMLGKGEFGSVREAQLKQEDGSFVKVAVKMLKADIIASSDIEEFLREAACMKEFDHPHVAKLVGVSLRSRAKGRLPIPMVILPFMKHGDLHAFLLASRIGENPFNLPLQTLIRFMVDIACGMEYLSSRNFIHRDLAARNCMLAEDMTVCVADFGLSRKIYSGDYYRQGCASKLPVKWLALESLADNLYTVQSDVWAFGVTMWEIMTRGQTPYAGIENAEIYNYLIGGNRLKQPPECMEDVYDLMYQCWSADPKQRPSFTCLRMELENILGQLSVLSASQDPLYINIERAEEPTAGGSLELPGRDQPYSGAGDGSGMGAVGGTPSDCRYILTPGGLAEQPGQAEHQPESPLNETQRLLLLQQGLLPHSSC
As to B4, the Signal to Noise ratio with BRB1 Peptide (TR-FRET kinase assay; kinase 0.25 nM) in series [1] stood at 6.1.

B5: ROS (protein)
chain: HRRLKNQKSAKEGVTVLINEDKELAELRGLAAGVGLANACYAIHTLPTQEEIENLPAFPREKLTLRLLLGSGAFGEVYEGTAVDILGVGSGEIKVAVKTLKKGSTDQEKIEFLKEAHLMSKFNHPNILKQLGVCLLNEPQYIILELMEGGDLLTYLRKARMATFYGPLLTLVDLVDLCVDISKGCVYLERMHFIHRDLAARNCLVSVKDYTSPRIVKIGDFGLARDIYKNDYYRKRGEGLLPVRWMAPESLMDGIFTTQSDVWSFGILIWEILTLGHQPYPAHSNLDVLNYVQTGGRLEPPRNCPDDLWNLMTQCWAQEPDQRPTFHRIQDQLQLFRNFFLNSIYKSRDEANNSGVINESFEGEDGDVICLNSDDIMPVALMETKNREGLNYMVLATECGQGEEKSEGPLGSQESESCGLRKEEKEPHADKDFCQEKQVAYCPSGKPEGLNYACLTHSGYGDGSD
For the protein B5, the Signal to Noise ratio with BRB1 Peptide (TR-FRET kinase assay; kinase 0.25 nM) in series [1] was 24.5.

B6: EphA4 (protein)
chain: SRRRSKYSKAKQEADEEKHLNQGVRTYVDPFTYEDPNQAVREFAKEIDASCIKIEKVIGVGEFGEVCSGRLKVPGKREICVAIKTLKAGYTDKQRRDFLSEASIMGQFDHPNIIHLEGVVTKCKPVMIITEYMENGSLDAFLRKNDGRFTVIQLVGMLRGIGSGMKYLSDMSYVHRDLAARNILVNSNLVCKVSDFGMSRVLEDDPEAAYTTRGGKIPIRWTAPEAIAYRKFTSASDVWSYGIVMWEVMSYGERPYWDMSNQDVIKAIEEGYRLPPPMDCPIALHQLMLDCWQKERSDRPKFGQIVNMLDKLIRNPNSLKRTGTESSRPNTALLDPSSPEFSAVVSVGDWLQAIKMDRYKDNFTAAGYTTLEAVVHVNQEDLARIGITAITHQNKILSSVQAMRTQMQQMHGRMVPV
As for B6, in the series with poly-EY, the Average Signal at 665 nm (TR-FRET kinase assay; kinase 2 nM, read 1 h after adding Eu-PT66 antibody) is 89000; the Average Signal at 665 nm (TR-FRET kinase assay; kinase 2 nM, read 18 h after adding Eu-PT66 antibody) is 35000; the Average Signal at 665 nm (TR-FRET kinase assay; kinase 2 nM, read 24 h after adding Eu-PT66 antibody) was 30100. Also, in series [1], the Average Signal at 665 nm (TR-FRET kinase assay; kinase 2 nM, read 1 h after adding Eu-PT66 antibody) was found to be 134000; the Average Signal at 665 nm (TR-FRET kinase assay; kinase 2 nM, read 18 h after adding Eu-PT66 antibody) came to 117000; the Average Signal at 665 nm (TR-FRET kinase assay; kinase 2 nM, read 24 h after adding Eu-PT66 antibody) came out at 116000; the Signal to Noise ratio with BRB1 Peptide (TR-FRET kinase assay; kinase 0.5 nM) was 31.5. In the series with poly-EAY, this protein gave an Average Signal at 665 nm (TR-FRET kinase assay; kinase 2 nM, read 1 h after adding Eu-PT66 antibody) of 110000; an Average Signal at 665 nm (TR-FRET kinase assay; kinase 2 nM, read 18 h after adding Eu-PT66 antibody) of 51400; an Average Signal at 665 nm (TR-FRET kinase assay; kinase 2 nM, read 24 h after adding Eu-PT66 antibody) of 45800.

B7: CSK (protein)
chain: MSAIQAAWPSGTECIAKYNFHGTAEQDLPFCKGDVLTIVAVTKDPNWYKAKNKVGREGIIPANYVQKREGVKAGTKLSLMPWFHGKITREQAERLLYPPETGLFLVRESTNYPGDYTLCVSCDGKVEHYRIMYHASKLSIDEEVYFENLMQLVEHYTSDADGLCTRLIKPKVMEGTVAAQDEFYRSGWALNMKELKLLQTIGKGEFGDVMLGDYRGNKVAVKCIKNDATAQAFLAEASVMTQLRHSNLVQLLGVIVEEKGGLYIVTEYMAKGSLVDYLRSRGRSVLGGDCLLKFSLDVCEAMEYLEGNNFVHRDLAARNVLVSEDNVAKVSDFGLTKEASSTQDTGKLPVKWTAPEALREKKFSTKSDVWSFGILLWEIYSFGRVPYPRIPLKDVVPRVEKGYKMDAPDGCPPAVYEVMKNCWHLDAAMRPSFLQLREQLEHIKTHELHL
For B7, the Signal to Noise Ratio with BRB1 Peptide (TR-FRET kinase assay; kinase 20 nM) in series [1] was 27.2.
